Experimental findings from the nanobody polyreactivity screen of Harvey et al. (2022) are described below.

The data set in a line: yeast display, Sf9 membrane polyspecificity reagent, FACS + sequencing; frameworks hold sequencing errors. The procedure, abridged:
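A synthetic nanobody library was expressed on Saccharomyces cerevisiae BJ5465 by galactose induction for 36–48 hours. The library was stained for 1 hour at 4 °C with 10% biotinylated, detergent-solubilized Sf9 membrane reagent and enriched with streptavidin microbeads before FACS. Low and high (top ~1%) gates were set on anti-HA fluorescence for expression and streptavidin fluorescence for reagent binding, and each polyreactivity label reflects the gate of origin.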
In the case of “QVQLVESGGGLVQAGGSLRLICAASGFIFSSNAMGWYRQAPGKERELVAAITRSGGSTYYADSVKGRFTISRDNAKNTVYLQMNSLKPEDTAVYYCNAYVWRSGYDYWGQGTQVTVSS”, the “polyreactivity (PSR sort gate)” value is listed as “high polyreactivity”. In the case of “QVQLVESGGGLVQAGGSLRLICAASGFIFTANVMGWYRQAPGKERELVAAISRSGGSTYYADSVKGRFTISRDNAKNTVYLQMNSLKPEDTAVYYCAKLRRDARYDYWGQGTQVTVSS”, the “polyreactivity (PSR sort gate)” value is listed as “high polyreactivity”. Then “QVQLVESGGGLVQAGGSLRLICAASGFIFVDNAMGWYRQAPGKERELVAAITSGASTYYADSVKGRFTISRDNAKITVYLQMNSLKPEDTAVYYCAADYLYYYTWYNYWGQGTQVTVSS”, with “low polyreactivity”. Take “QVQLVESGGGLVQAGGSLRLICAASGFIFWFYAMGWYRQAPGKERELVASISASGGSTNYADSVKGRFTISRDKAKNTVYLQMNSLKPEDTAVYYCAARKRYQRGYWGQGTQVTVSS”: the “polyreactivity (PSR sort gate)” value is “high polyreactivity”. Consider “QVQLVESGGGLVQAGGSLRLICAASGFILKPNAMGWYRQAPGKERELVAAISWSSGSTYYADSVKGRFTISRDNAKNTVYLQMNSLKPEDTAVYYCAADYFVYPVDWYDYWGQGTQVTVSS”, for which the “polyreactivity (PSR sort gate)” value is listed as “low polyreactivity”. Next, “QVQLVESGGGLVQAGGSLRLICAASGFNFQRYAMGWYIQAPGKERELVATISNSGGRTYYADSVKGRFTISRDNAKNTVYLQMNSLKPEDTAVYYCAAGKPYSSYWSWGYWSNLEDDYWGQGTQVTVSS”: “high polyreactivity”; “QVQLVESGGGLVQAGGSLRLICAASGFTFASNDMGWYRQAPGKERELVAAITKGGGRTYYADSVKGRFTISRDNAKNTVYFQMNSLKPEETAVYYCAGRQLIKYDYWGQGTQVTVSS”: “low polyreactivity”. Next, “QVQLVESGGGLVQAGGSLRLICAASGFTFDYNAMGWYRPAPVKERELVAAISGSGGSTFYADSVKGRFTISRDNAKNTVYLQMNSLKPEDTAVYYCNVYQHDDDFDYWGQGTQVTVSS”: “low polyreactivity”; “QVQLVESGGGLVQAGGSLRLICAASGFTFLVYAMAWDRQAPGKERELVAAIRWRGGSTYADSLKGRFTISRDNAKNTVYLQMYSLKPEDTAVYYCAAANRYYVSPRVYYWGQGTQVTVSS”: “high polyreactivity”. Then “QVQLVESGGGLVQAGGSLRLICAASGFTFNFYAMGWYRQAPGKEMELVASITSSGARTYYADSVKGRFTISRDNAKNSVYLQMNSQKPEDTAVYYCAARVYRYSASRAYDYWGQGTQVTVSS”, with “high polyreactivity”; and “QVQLVESGGGLVQAGGSLRLICAASGFTFSKYGMVWYRQAPGKERELVAAISGSGGNTYYADSVKGRFTISRDNAKNTVYLLINSLKPEDTAVYYCNATWELLSYYYLFWGYDYWGQGTQVTVSS”, with “low polyreactivity”; and “QVQLVESGGGLVQAGGSLRLICAASGFTLYAYAMGWYRQAPGKERELVAAISDSGGDTYYADSVKGRFTISRDNAKNTVYLQMNSLKPEDTAVYYCAALYNHWWEYDYWGQGTQVTVSS”, with “low polyreactivity”. As to “QVQLVESGGGLVQAGGSLRLICAASGFTYRGYAMGWYRQAPGKERELVAAISSSVGSTYYADAVKGRFTISRDNAKNTVYLQKISLKPEDTAVYYCAARKGYVIRYNYWGQGTQVTVSS”, the “polyreactivity (PSR sort gate)” value is listed as “high polyreactivity”. Turning to “QVQLVESGGGLVQAGGSLRLICAASGGTFSHNDMGWYRQAPGKEMELVASINSGGSTNYADSVKGRFTISRDNAKNTVYLQMNSLKPEDSAVYYCAADVEGWTVESDVYRVGYDYWGHGTQVTVSS”, the “polyreactivity (PSR sort gate)” value was “low polyreactivity”. Next, “QVQLVESGGGLVQAGGSLRLICAASGIIFAYNAMGWYRQAPGKESELVAAISVIGGTTYYADSVKGRFTMSRDNAKNTVYLRMNSLKPEDSAVYYCAVDSVQYGGGYERLHELYYWGQGTQVTVSS”: “low polyreactivity”; “QVQLVESGGGLVQAGGSLRLICAASGIIFDSYAMGWYSQEPGKERELVAAITSDSGRTYYADSVKGRFTISRDNAKNNVYLEMNSLKPEDTAVYYCAKRWDGPYDYWGQGTQVTVSS”: “low polyreactivity”.
